Results as given in publication PMC5792450, “PRRT2 Regulates Synaptic Fusion by Directly Modulating SNARE Complex Assembly” (Cell Reports, 2018).

Molecular target: T1, t-SNARE (syntaxin1a/SNAP25) (UniProt P32851 1-288; P60879 1-206)
T1 construct: syntaxin1a; SNAP25; also called t-SNARE complexes; synaptic t-SNAREs
Assay: MST; t-SNARE or assembled SNARE complex titrated in solution, up to ∼150 μM t-SNARE and ∼60 μM SNARE complex; binding not saturated; soluble conditions; Syt1 tested likewise
Settings: both partners purified

T1 sequence (P32851 whole entry, chain 1 of 2): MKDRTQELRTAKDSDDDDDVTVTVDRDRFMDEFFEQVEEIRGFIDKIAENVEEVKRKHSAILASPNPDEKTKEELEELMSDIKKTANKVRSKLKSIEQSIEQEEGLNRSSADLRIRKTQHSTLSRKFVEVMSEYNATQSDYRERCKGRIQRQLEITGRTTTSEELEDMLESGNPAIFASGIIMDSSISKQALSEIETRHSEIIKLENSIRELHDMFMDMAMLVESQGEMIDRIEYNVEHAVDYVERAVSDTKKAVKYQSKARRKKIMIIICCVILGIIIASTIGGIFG
T1 sequence (P60879 whole entry, chain 2 of 2): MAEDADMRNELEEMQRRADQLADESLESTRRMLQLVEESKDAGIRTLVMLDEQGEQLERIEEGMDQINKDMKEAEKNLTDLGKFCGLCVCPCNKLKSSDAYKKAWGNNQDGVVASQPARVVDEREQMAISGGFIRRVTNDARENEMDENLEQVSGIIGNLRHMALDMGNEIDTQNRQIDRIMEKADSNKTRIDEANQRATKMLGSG

Kd: ≥ 50 µM
B1: proline-rich transmembrane protein 2 (PRRT2), full-length, wild type (natural protein, human, UniProt Q7Z6L0 1-340, looked up)
chain: MAASSSEISEMKGVEESPKVPGEGPGHSEAETGPPQVLAGVPDQPEAPQPGPNTTAAPVDSGPKAGLAPETTETPAGASETAQATDLSLSPGGESKANCSPEDPCQETVSKPEVSKEATADQGSRLESAAPPEPAPEPAPQPDPRPDSQPTPKPALQPELPTQEDPTPEILSESVGEKQENGAVVPLQAGDGEEGPAPEPHSPPSKKSPPANGAPPRVLQQLVEEDRMRRAHSGHPGSPRGSLSRHPSSQLAGPGVEGGEGTQKPRDYIILAILSCFCPMWPVNIVAFAYAVMSRNSLQQGDVDGAQRLGRVAKLLSIVALVGGVLIIIASCVINLGVYK
notes: PRRT2, human, full length, cloned into pGEX6p-1; In the fusion, docking and FRET assays it was reconstituted into liposomes; also called purified PRRT2; recombinant PRRT2; source: E. coli Rosetta2(DE3), purified (glutathione agarose, cleaved off the resin with PreScission Protease)
